Source: article PMC4620603

Target: pyrene-labeled tropomyosin from bovine cardiac tissue (bovine) (UniProt Q5KR49)
Assay: other fluorescence titration; troponin complex binding to 100 nM pyrene-tropomyosin, 23 °C, 20 mM Hepes pH 7.5, 100 mM KCl, 2 mM MgCl2, 1 mM DTT

## human adult cardiac troponin complex with R205Q troponin T (from UniProt P45379-6 1-288; P19429 1-210; P02585 1-160)
  Kd: 48 nM

## human adult cardiac troponin complex, wild type (troponin T, troponin I, troponin C) (from UniProt P45379-6 1-288; P19429 1-210; P02585 1-160)
  Kd: 68 nM
